The target of the assay is T1, ATTO647N-STX17 SNARE domain (residues 161-231, E198C) (UniProt P56962 161-231, E198C, ATTO647N maleimide conjugated (cysteine introduced by E198C)).
T1 sequence (looked up): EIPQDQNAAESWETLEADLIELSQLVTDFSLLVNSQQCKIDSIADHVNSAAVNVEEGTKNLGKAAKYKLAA
In words: FRET or BRET. (In BRET a luciferase serves as donor, and the signal depends on an acceptor being close.)

B1: ATTO550-VAMP7 SNARE domain (residues 123-187, E152C) (domain or fragment, UniProt P51809 123-187, looked up)
chain: LDKVMETQAQVDELKGIMVRNIDLVAQRGC(ATTO550 maleimide)RLELLIDKTENLVDSSVTFKTTSRNLARAMCMKNL
B1: the binding result was “binds”.

B2: ATTO550-VAMP8 SNARE domain (10-74, E39C) (domain or fragment, UniProt Q9BV40 10-74, looked up)
chain: NDRVRNLQSEVEGVKNIMTQNVERILARGC(ATTO550 maleimide)NLEHLRNKTEDLEATSEHFKTTSQKVARKFWWKNV
Turning to B2, the binding result is on record as “binds”.

For the origin of these results see paper PMC11718230 (Nature Communications, 2025).
